Source: PMC12102759 (2025)

B1: CBL peptide 540-555 (E3 ubiquitin-protein ligase CBL), 16-mer library wild type / YES SH3 (YES1 SH3 domain, residues 90-152) (parent complex)
chain 1: RDLPPPPPPDRPYSVG
chain 2: not shown

Variants of: B1
Assay: proteomic peptide phage display deep mutational scan (ProP-PD DMS): M13 P8 16-mer library selected against immobilised GST-tagged bait for four days (rounds), NGS of the eluted pools per day and pseudo-replica; bait immobilised on MaxiSorp plates (10 µg), library pre-cleared on GST, 2 h binding at 4 °C, five washes; one round per day, days 1-4; value from days 2 and 3

Row | Variant | screen value
1 | chain 1 V15W | 0.0167 average fractional NGS count over selection days 2 and 3 (reads of this peptide / all reads for the bait, averaged over …
2 | chain 1 V15M | 0.00453 average fractional NGS count over selection days 2 and 3 (reads of this peptide / all reads for the bait, averaged over …
3 | chain 1 V15H | 0.00504 average fractional NGS count over selection days 2 and 3 (reads of this peptide / all reads for the bait, averaged over …
4 | chain 1 V15G | 0.000446 average fractional NGS count over selection days 2 and 3 (reads of this peptide / all reads for the bait, averaged over …
5 | chain 1 V15A | 0.00486 average fractional NGS count over selection days 2 and 3 (reads of this peptide / all reads for the bait, averaged over …
6 | chain 1 V15I | 7.73e-05 average fractional NGS count over selection days 2 and 3 (reads of this peptide / all reads for the bait, averaged over …
7 | chain 1 V15S | 0.00131 average fractional NGS count over selection days 2 and 3 (reads of this peptide / all reads for the bait, averaged over …
8 | chain 1 R1T | 0.000703 average fractional NGS count over selection days 2 and 3 (reads of this peptide / all reads for the bait, averaged over …
9 | chain 1 R1M | 0.00223 average fractional NGS count over selection days 2 and 3 (reads of this peptide / all reads for the bait, averaged over …
10 | chain 1 R1L | 0.000379 average fractional NGS count over selection days 2 and 3 (reads of this peptide / all reads for the bait, averaged over …
11 | chain 1 R1F | 0.000504 average fractional NGS count over selection days 2 and 3 (reads of this peptide / all reads for the bait, averaged over …
12 | chain 1 R1P | 0.000732 average fractional NGS count over selection days 2 and 3 (reads of this peptide / all reads for the bait, averaged over …
13 | chain 1 P5Q | 0.00016 average fractional NGS count over selection days 2 and 3 (reads of this peptide / all reads for the bait, averaged over …
14 | chain 1 P5H | 0.00214 average fractional NGS count over selection days 2 and 3 (reads of this peptide / all reads for the bait, averaged over …
15 | chain 1 P5I | 0.0162 average fractional NGS count over selection days 2 and 3 (reads of this peptide / all reads for the bait, averaged over …
16 | chain 1 P5R | 0.00132 average fractional NGS count over selection days 2 and 3 (reads of this peptide / all reads for the bait, averaged over …
17 | chain 1 P5K | 0.0018 average fractional NGS count over selection days 2 and 3 (reads of this peptide / all reads for the bait, averaged over …
18 | chain 1 P5M | 0.00164 average fractional NGS count over selection days 2 and 3 (reads of this peptide / all reads for the bait, averaged over …
19 | chain 1 S14M | 0.00137 average fractional NGS count over selection days 2 and 3 (reads of this peptide / all reads for the bait, averaged over …
20 | chain 1 S14I | 0.00339 average fractional NGS count over selection days 2 and 3 (reads of this peptide / all reads for the bait, averaged over …
21 | chain 1 S14T | 0.0152 average fractional NGS count over selection days 2 and 3 (reads of this peptide / all reads for the bait, averaged over …
22 | chain 1 S14R | 6.61e-05 average fractional NGS count over selection days 2 and 3 (reads of this peptide / all reads for the bait, averaged over …
23 | chain 1 S14F | 0.0172 average fractional NGS count over selection days 2 and 3 (reads of this peptide / all reads for the bait, averaged over …
24 | chain 1 S14D | 0.000862 average fractional NGS count over selection days 2 and 3 (reads of this peptide / all reads for the bait, averaged over …
25 | chain 1 P9R | 0.000295 average fractional NGS count over selection days 2 and 3 (reads of this peptide / all reads for the bait, averaged over …

Row | Variant | screen value
26 | chain 1 P9A | 0.00224 average fractional NGS count over selection days 2 and 3 (reads of this peptide / all reads for the bait, averaged over …
27 | chain 1 P9W | 0.00602 average fractional NGS count over selection days 2 and 3 (reads of this peptide / all reads for the bait, averaged over …
28 | chain 1 P9L | 0.00194 average fractional NGS count over selection days 2 and 3 (reads of this peptide / all reads for the bait, averaged over …
29 | chain 1 P9S | 0.000868 average fractional NGS count over selection days 2 and 3 (reads of this peptide / all reads for the bait, averaged over …
30 | chain 1 P9Q | 0.00144 average fractional NGS count over selection days 2 and 3 (reads of this peptide / all reads for the bait, averaged over …
31 | chain 1 P6Y | 0.000164 average fractional NGS count over selection days 2 and 3 (reads of this peptide / all reads for the bait, averaged over …
32 | chain 1 P6Q | 0.000768 average fractional NGS count over selection days 2 and 3 (reads of this peptide / all reads for the bait, averaged over …
33 | chain 1 P6M | 0.0066 average fractional NGS count over selection days 2 and 3 (reads of this peptide / all reads for the bait, averaged over …
34 | chain 1 P6A | 0.0119 average fractional NGS count over selection days 2 and 3 (reads of this peptide / all reads for the bait, averaged over …
35 | chain 1 P6E | 0.000208 average fractional NGS count over selection days 2 and 3 (reads of this peptide / all reads for the bait, averaged over …
36 | chain 1 P6F | 0.00211 average fractional NGS count over selection days 2 and 3 (reads of this peptide / all reads for the bait, averaged over …
37 | chain 1 P7T | 0.00618 average fractional NGS count over selection days 2 and 3 (reads of this peptide / all reads for the bait, averaged over …
38 | chain 1 P7A | 0.000371 average fractional NGS count over selection days 2 and 3 (reads of this peptide / all reads for the bait, averaged over …
39 | chain 1 P7G | 9.71e-05 average fractional NGS count over selection days 2 and 3 (reads of this peptide / all reads for the bait, averaged over …
40 | chain 1 P7F | 0.00308 average fractional NGS count over selection days 2 and 3 (reads of this peptide / all reads for the bait, averaged over …
41 | chain 1 P7R | 0.000229 average fractional NGS count over selection days 2 and 3 (reads of this peptide / all reads for the bait, averaged over …
42 | chain 1 P7M | 0.00246 average fractional NGS count over selection days 2 and 3 (reads of this peptide / all reads for the bait, averaged over …
43 | chain 1 P7H | 0.00103 average fractional NGS count over selection days 2 and 3 (reads of this peptide / all reads for the bait, averaged over …
44 | chain 1 D2H | 0.000405 average fractional NGS count over selection days 2 and 3 (reads of this peptide / all reads for the bait, averaged over …
45 | chain 1 D2I | 0.00123 average fractional NGS count over selection days 2 and 3 (reads of this peptide / all reads for the bait, averaged over …
46 | chain 1 D2Q | 0.00168 average fractional NGS count over selection days 2 and 3 (reads of this peptide / all reads for the bait, averaged over …
47 | chain 1 P12H | 0.00204 average fractional NGS count over selection days 2 and 3 (reads of this peptide / all reads for the bait, averaged over …
48 | chain 1 P12I | 0.00216 average fractional NGS count over selection days 2 and 3 (reads of this peptide / all reads for the bait, averaged over …
49 | chain 1 P12Q | 0.0162 average fractional NGS count over selection days 2 and 3 (reads of this peptide / all reads for the bait, averaged over …
50 | chain 1 R11T | 0.00408 average fractional NGS count over selection days 2 and 3 (reads of this peptide / all reads for the bait, averaged over …

Row | Variant | screen value
51 | chain 1 R11L | 0.00999 average fractional NGS count over selection days 2 and 3 (reads of this peptide / all reads for the bait, averaged over …
52 | chain 1 R11K | 0.000739 average fractional NGS count over selection days 2 and 3 (reads of this peptide / all reads for the bait, averaged over …
53 | chain 1 R11D | 0.000209 average fractional NGS count over selection days 2 and 3 (reads of this peptide / all reads for the bait, averaged over …
54 | chain 1 R11M | 0.00776 average fractional NGS count over selection days 2 and 3 (reads of this peptide / all reads for the bait, averaged over …
55 | chain 1 R11P | 0.00145 average fractional NGS count over selection days 2 and 3 (reads of this peptide / all reads for the bait, averaged over …
56 | chain 1 R11A | 8.11e-05 average fractional NGS count over selection days 2 and 3 (reads of this peptide / all reads for the bait, averaged over …
57 | chain 1 L3K | 0.000147 average fractional NGS count over selection days 2 and 3 (reads of this peptide / all reads for the bait, averaged over …
58 | chain 1 L3E | 5.03e-05 average fractional NGS count over selection days 2 and 3 (reads of this peptide / all reads for the bait, averaged over …
59 | chain 1 L3F | 9.32e-05 average fractional NGS count over selection days 2 and 3 (reads of this peptide / all reads for the bait, averaged over …
60 | chain 1 L3W | 0.000182 average fractional NGS count over selection days 2 and 3 (reads of this peptide / all reads for the bait, averaged over …
61 | chain 1 L3A | 0.000233 average fractional NGS count over selection days 2 and 3 (reads of this peptide / all reads for the bait, averaged over …
62 | chain 1 D10W | 0.00158 average fractional NGS count over selection days 2 and 3 (reads of this peptide / all reads for the bait, averaged over …
63 | chain 1 D10N | 0.000163 average fractional NGS count over selection days 2 and 3 (reads of this peptide / all reads for the bait, averaged over …
64 | chain 1 D10H | 0.00429 average fractional NGS count over selection days 2 and 3 (reads of this peptide / all reads for the bait, averaged over …
65 | chain 1 D10F | 0.000931 average fractional NGS count over selection days 2 and 3 (reads of this peptide / all reads for the bait, averaged over …
66 | chain 1 D10A | 0.00828 average fractional NGS count over selection days 2 and 3 (reads of this peptide / all reads for the bait, averaged over …
67 | chain 1 D10M | 0.00163 average fractional NGS count over selection days 2 and 3 (reads of this peptide / all reads for the bait, averaged over …
68 | chain 1 Y13A | 0.00126 average fractional NGS count over selection days 2 and 3 (reads of this peptide / all reads for the bait, averaged over …
69 | chain 1 Y13L | 0.00594 average fractional NGS count over selection days 2 and 3 (reads of this peptide / all reads for the bait, averaged over …
70 | chain 1 P8I | 0.000285 average fractional NGS count over selection days 2 and 3 (reads of this peptide / all reads for the bait, averaged over …
71 | chain 1 P8V | 0.0212 average fractional NGS count over selection days 2 and 3 (reads of this peptide / all reads for the bait, averaged over …
72 | chain 1 P8M | 0.00164 average fractional NGS count over selection days 2 and 3 (reads of this peptide / all reads for the bait, averaged over …
73 | chain 1 P8L | 0.000348 average fractional NGS count over selection days 2 and 3 (reads of this peptide / all reads for the bait, averaged over …
74 | chain 1 P8K | 0.000519 average fractional NGS count over selection days 2 and 3 (reads of this peptide / all reads for the bait, averaged over …
75 | chain 1 P8E | 0.00198 average fractional NGS count over selection days 2 and 3 (reads of this peptide / all reads for the bait, averaged over …
